This data set has as its target NtMYC2aΔN (C-terminal bHLH domain) (Nicotiana tabacum). The experiment in a line: EMSA; 10 mM Tris, 50 mM KCl, 1 mM DTT, poly(dI-dC), room temperature; 500x cold probe reduced the signal. The settings on record: tags: GST fusion, cleaved with thrombin; label: 3' biotin. As to the method:
EMSA was performed according to manual of the kit (LightShift,) Chemiluminescent EMSA Kit, Pierce). The binding buffer was 10 mM Tris, 50 mM KCl, 1 mM DTT, 0.05 μg/μl poly(di-dc), 0.05% NP-40, and 2.5% (v/v) glycerol. The probe was 20 fmol for each reaction. The cold probe and mutated probe were 10 pmol (500×) and the protein was 0.75 μg MYC2aΔN. The binding reaction was performed at room temperature for 20 min. The reaction mixture was separated on a 5% polyacrylamide gel and blotted on Hybond™-N⁺ membrane (Amersham, Piscataway, N.J., USA). UV crosslinker was used to crosslink the DNA to membrane. The membrane was probed and signal was detected according to the manual of kit (Chemiluminescent Nucleic Acid Detection Module Kit, Pierce). Kodak BioMax MS film (Carestream Health, Inc. Rochester, N.Y.) was exposed to record the signal.
Three G-boxes (G2, G3 and G4) were identified in the 0.6 kb NtQPT2 promoter (NCBI accession No. AJ748263), among which G2 box has the highest binding strength with NtMYC2b (Shoji and Hashimoto, 2011). To validate that NtMYC2a binds to G2-box. EMSA experiment was performed with probes of 38 bp consisting of a G2 box (CACGTT) and flanking regions from the NtQPT2 promoter and mutated probe with mutation in the G2 box sequence. We cloned the full length of NtMYC2a and expressed the recombinant protein (NtMYC2a fused with GST) in E. coli. […]

Chain of NtMYC2aΔN (C-terminal bHLH domain) (Nicotiana tabacum) (chain, as listed by the source mutant): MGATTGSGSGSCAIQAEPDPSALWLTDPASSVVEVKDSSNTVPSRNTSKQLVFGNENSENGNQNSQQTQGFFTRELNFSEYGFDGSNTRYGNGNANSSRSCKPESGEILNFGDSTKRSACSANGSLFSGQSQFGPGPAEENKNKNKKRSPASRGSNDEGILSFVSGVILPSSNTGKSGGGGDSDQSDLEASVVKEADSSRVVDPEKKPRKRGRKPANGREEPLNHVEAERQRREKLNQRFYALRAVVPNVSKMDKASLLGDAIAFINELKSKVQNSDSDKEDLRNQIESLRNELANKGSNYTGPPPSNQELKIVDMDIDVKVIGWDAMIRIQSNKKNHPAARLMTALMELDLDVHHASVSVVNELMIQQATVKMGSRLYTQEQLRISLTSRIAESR

B1: G2-box probe of NtQPT2 promoter (dsDNA)
DNA 1: AGTAGCTGAACACGTTTTATTTATGGTTGTTGAATAGT
DNA 2: ACTATTCAACAACCATAAATAAAACGTGTTCAGCTACT
Turning to B1, the binding result is “binds”.

Values taken from patent US20180362994, “TRANSCRIPTION FACTORS THAT REGULATE NICOTINE BIOSYNTHESIS IN TOBACCO” (NORTH CAROLINA STATE UNIVERSITY, published 2018).
